Test results as given in publication PMC9000958, “Sticks and Stones, a conserved cell surface ligand for the Type IIa RPTP Lar, regulates neural circuit wiring in Drosophila” (eLife, 2022).

Experiments:
[1] = molecular target: Nephrin or Sns (expressed in Tub>NPHS1 or Tub>Sns embryos); assay: immunostaining of cells or tissue; live-dissected stage 16 embryos (WT or Tub-GAL4 overexpression) incubated 2 hr at room temperature with AP or AP5 fusion protein supernatants (1x or concentrated), fixed in 4% paraformaldehyde, detected with anti-AP antibody; staining intensity compared with WT embryos
[2] = molecular target: Lar-Fc fusion protein (Drosophila) (UniProt P16621); assay: ELISA; ECIA: Fc fusion bait (1x supernatant) captured by anti-human IgG (Fc-specific) on plate; AP5 fusion prey (1x supernatant) pre-clustered with anti-AP:biotin, overnight at room temperature; streptavidin:HRP, TMB, absorbance at 450 nm
[3] = molecular target: Lar, ectopically expressed in Tub>Lar embryos (Drosophila) (UniProt P16621); assay: immunostaining of cells or tissue; live-dissected stage 16 embryos (WT or Tub-GAL4 overexpression) incubated 2 hr at room temperature with AP or AP5 fusion protein supernatants (1x or concentrated), fixed in 4% paraformaldehyde, detected with anti-AP antibody; staining intensity compared with WT embryos
[4] = molecular target: Sticks and Stones (Sns), ectopically expressed in Tub>Sns embryos (Drosophila); assay: as above
[5] = molecular target: Sns-AP5 fusion protein (Drosophila); assay: ELISA; ECIA with mi3 particles: AP5 bait (10 ng/ul) on streptavidin-coated plate; mi3 particles or Fc fusion proteins as prey at 10 ng/ul or 1x, overnight at room temperature; detected with anti-LAR or anti-human IgG (Fc) and anti-mouse:AP, BluePhos, absorbance at 650 nm; mi3 preys were purified, purification of bait not told
[6] = molecular target: T1, human Nephrin, ectopically expressed in Tub>NPHS1 embryos (human, UniProt O60500 23-1241); assay: immunostaining of cells or tissue; live-dissected stage 16 embryos (WT or Tub-GAL4 overexpression) incubated 2 hr at room temperature with AP or AP5 fusion protein supernatants (1x or concentrated), fixed in 4% paraformaldehyde, detected with anti-AP antibody; staining intensity compared with WT embryos; details: partners not purified
T1 construct: source: Drosophila embryos, UAS-linked full-length human Nephrin cDNA driven by Tub-GAL4, live-dissected stage 16
T1 sequence (looked up): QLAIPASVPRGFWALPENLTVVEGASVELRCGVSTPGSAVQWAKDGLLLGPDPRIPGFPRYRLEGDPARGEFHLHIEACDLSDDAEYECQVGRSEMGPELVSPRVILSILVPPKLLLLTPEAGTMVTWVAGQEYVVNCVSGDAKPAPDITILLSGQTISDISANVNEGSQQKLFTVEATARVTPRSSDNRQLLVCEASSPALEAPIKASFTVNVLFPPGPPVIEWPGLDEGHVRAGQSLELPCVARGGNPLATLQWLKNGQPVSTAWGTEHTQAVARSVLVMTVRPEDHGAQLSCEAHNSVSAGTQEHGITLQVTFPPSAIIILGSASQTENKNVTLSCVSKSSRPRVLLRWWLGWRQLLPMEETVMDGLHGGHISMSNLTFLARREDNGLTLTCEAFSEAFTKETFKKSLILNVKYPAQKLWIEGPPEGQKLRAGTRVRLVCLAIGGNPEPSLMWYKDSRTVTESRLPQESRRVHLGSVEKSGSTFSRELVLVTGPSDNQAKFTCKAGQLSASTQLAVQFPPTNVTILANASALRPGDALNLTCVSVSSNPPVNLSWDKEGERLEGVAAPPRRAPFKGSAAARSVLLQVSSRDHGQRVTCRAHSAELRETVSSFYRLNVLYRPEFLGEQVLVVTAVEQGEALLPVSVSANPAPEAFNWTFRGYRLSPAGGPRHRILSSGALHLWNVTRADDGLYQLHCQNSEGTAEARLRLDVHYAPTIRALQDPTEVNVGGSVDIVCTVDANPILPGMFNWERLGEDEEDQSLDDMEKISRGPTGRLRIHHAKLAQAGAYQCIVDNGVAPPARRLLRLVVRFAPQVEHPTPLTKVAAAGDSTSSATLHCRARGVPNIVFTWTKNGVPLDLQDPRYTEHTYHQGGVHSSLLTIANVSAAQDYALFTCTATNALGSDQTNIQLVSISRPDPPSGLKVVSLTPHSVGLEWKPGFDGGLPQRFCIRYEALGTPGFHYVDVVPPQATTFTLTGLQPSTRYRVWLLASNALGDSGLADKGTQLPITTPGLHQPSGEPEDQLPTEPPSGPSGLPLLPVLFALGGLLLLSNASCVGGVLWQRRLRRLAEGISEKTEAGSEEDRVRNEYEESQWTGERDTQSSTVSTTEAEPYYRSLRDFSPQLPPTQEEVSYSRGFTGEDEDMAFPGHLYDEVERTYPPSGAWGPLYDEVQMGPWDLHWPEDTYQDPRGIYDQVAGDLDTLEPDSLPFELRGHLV

PTPRF-AP5 fusion protein (from UniProt P10586 30-1263) (domain or fragment)
fold increase in staining vs. WT embryos [1]: 18 to 20 fold

Sns-AP5 fusion protein (domain or fragment)
fold higher binding signal [2]: 3 fold
fold increase in staining vs. WT embryos [3]: 3 fold

Lar^HS2-alkaline phosphatase fusion protein (from UniProt P16621 33-1377) (domain or fragment)
fold increase in staining vs. WT embryos [4]: > 10 fold

B1: 60-mer Lar particles on the mi3 nanoparticle scaffold (Fc fusion)
chain: AHPPEIIRKPQNQGVRVGGVASFYCAARGDPPPSIVWRKNGKKVSGTQSRYTVLEQPGGISILRIEPVRAGRDDAPYECVAENGVGDAVSADATLTIYEGDKTPAGFPVITQGPGTRVIEVGHTVLMTCKAIGNPTPNIYWIKNQTKVDMSNPRYSLKDGFLQIENSREEDQGKYECVAENSMGTEHSKATNLYVKVRRVPPTFSRPPETISEVMLGSNLNLSCIAVGSPMPHVKWMKGSEDLTPENEMPIGRNVLQLINIQESANYTCIAASTLGQIDSVSVVKVQSLPTAPTDVQISEVTATSVRLEWSYKGPEDLQYYVIQYKPKNANQAFSEISGIITMYYVVRALSPYTEYEFYVIAVNNIGRGPPSAPATCTTGETKMESAPRNVQVRTLSSSTMVITWEPPETPNGQVTGYKVYYTTNSNQPEASWNSQMVDNSELTTVSELTPHAIYTVRVQAYTSMGAGPMSTPVQVKAQQGVPSQPSNFRATDIGETAVTLQWTKPTHSSENIVHYELYWNDTYANQAHHKRISNSEAYTLDGLYPDTLYYIWLAARSQRGEGATTPPIPVRTKQYVPGAPPRNITAIATSSTTISLSWLPPPVERSNGRIIYYKVFFVEVGREDDEATTMTLNMTSIVLDELKRWTEYKIWVLAGTSVGDGPRSHPIILRTQEDVPGDPQDVKATPLNSTSIHVSWKPPLEKDRNGIIRGYHIHAQELRDEGKGFLNEPFKFDVVDTLEFNVTGLQPDTKYSIQVAALTRKGDGDRSAAIVVKTPGGVPVRPTVSLKIMEREPIVSIELEWERPAQTYGELRGYRLRWGVKDQALKEEMLSGPQMTKKRFDNLERGVEYEFRVAGSNHIGIGQETVKIFQTPEGTPGGPPSNITIRFQTPDVLCVTWDPPTREHRNGIITRYDVQFHKKIDHGLGSERNMTLRKAVFTNLEENTEYIFRVRAYTKQGAGPFSDKLIVETERDMGRAPMSLQAEATSEQTAEIWWEPVTSRGKLLGYKIFYTMTAVEDLDDWQTKTVGLTESADLVNLEKFAQYAVAIAARFKNGLGRLSEKVTVRIKPEDVPLNLRAHDVSTHSMTLSWSPPIRLTPVNYKISFDAMKVFVDSQGFSQTQIVPKREIILKHYVKTHTINELSPFTTYNVNVSAIPSDYSYRPPTKITVTTQMAAPQPMVKPDFYGVVNGEEILVILPQASEEYGPISHYYLVVVPEDKSNLHKIPDQFLTDDLLPGRNKPERPNAPYIAAKFPQRSIPFTFHLGSGDDYHNFTNRKLEREKRYRIFVRAVVDTPQKHLYTSSPFSEFLSLDMREAPPGERPHRPDPNWPAEPEVSVNRNKDEPE
fold increase in binding signal [5]: 7 fold
fold weaker binding signal than Kirre on Sns-AP5 [5]: 2 fold

B2: PTPRD-AP5 fusion protein (domain or fragment, human, UniProt P23468 21-1265, looked up)
chain: ETPPRFTRTPVDQTGVSGGVASFICQATGDPRPKIVWNKKGKKVSNQRFEVIEFDDGSGSVLRIQPLRTPRDEAIYECVASNNVGEISVSTRLTVLREDQIPRGFPTIDMGPQLKVVERTRTATMLCAASGNPDPEITWFKDFLPVDTSNNNGRIKQLRSESIGGTPIRGALQIEQSEESDQGKYECVATNSAGTRYSAPANLYVRELREVRRVPPRFSIPPTNHEIMPGGSVNITCVAVGSPMPYVKWMLGAEDLTPEDDMPIGRNVLELNDVRQSANYTCVAMSTLGVIEAIAQITVKALPKPPGTPVVTESTATSITLTWDSGNPEPVSYYIIQHKPKNSEELYKEIDGVATTRYSVAGLSPYSDYEFRVVAVNNIGRGPPSEPVLTQTSEQAPSSAPRDVQARMLSSTTILVQWKEPEEPNGQIQGYRVYYTMDPTQHVNNWMKHNVADSQITTIGNLVPQKTYSVKVLAFTSIGDGPLSSDIQVITQTGVPGQPLNFKAEPESETSILLSWTPPRSDTIANYELVYKDGEHGEEQRITIEPGTSYRLQGLKPNSLYYFRLAARSPQGLGASTAEISARTMQSKPSAPPQDISCTSPSSTSILVSWQPPPVEKQNGIITEYSIKYTAVDGEDDKPHEILGIPSDTTKYLLEQLEKWTEYRITVTAHTDVGPGPESLSVLIRTNEDVPSGPPRKVEVEAVNSTSVKVSWRSPVPNKQHGQIRGYQVHYVRMENGEPKGQPMLKDVMLADAQWEFDDTTEHDMIISGLQPETSYSLTVTAYTTKGDGARSKPKLVSTTGAVPGKPRLVINHTQMNTALIQWHPPVDTFGPLQGYRLKFGRKDMEPLTTLEFSEKEDHFTATDIHKGASYVFRLSARNKVGFGEEMVKEISIPEEVPTGFPQNLHSEGTTSTSVQLSWQPPVLAERNGIITKYTLLYRDINIPLLPMEQLIVPADTTMTLTGLKPDTTYDVKVRAHTSKGPGPYSPSVQFRTLPVDQVFAKNFHVKAVMKTSVLLSWEIPENYNSAMPFKILYDDGKMVEEVDGRATQKLIVNLKPEKSYSFVLTNRGNSAGGLQHRVTAKTAPDVLRTKPAFIGKTNLDGMITVQLPEVPANENIKGYYIIIVPLKKSRGKFIKPWESPDEMELDELLKEISRKRRSIRYGREVELKPYIAAHFDVLPTEFTLGDDKHYGGFTNKQLQSGQEYVFFVLAVMEHAESKMYATSPYSDPVVSMDLDPQPITDEEE
notes: human PTPRD extracellular domain, amplified from a full-length cDNA; also called PTPδ; source: Drosophila S2 cells, transfected, supernatant
fold increase in staining vs. WT embryos [6]: 3 fold
